Results on 56 variants are retold here after the RNAGym collection of RNA variant scans (doi:10.7554/elife.90254).

Sequences and labels used below:
B1: LINE1-mini (parent)
chain: GGCAGAGCUCAACACAGCGUGGCAAAGUGGCUGUGGCUAGACUGCC

The series covers variants of B1. Briefly: self-cleavage, relative activity (ratio to wild type); higher = more cleavage; in vitro, sequencing; the parent is a self-cleaving ribozyme.
Regarding GGCAGAGCUCAACACAGCAUGGCAAAGUGGCUGUGGCUAGACUGCC [G19A], the self-cleavage stood at 1.5. Then GGCAGAGCUCAACACAGUGUGGCAAAGUGGCUGUGGAUAGACUGCC [C18U C37A], with 0.09; and GGCAGAGCUCAACACAGUGUGGCAAAGUGGCUGUGGGUAGACUGCC [C18U C37G], with 0.04.

For the variant GGCAGAGCUCAACACAGUGUGGCAAAGUGGCUGUGGUUAGACUGCC [C18U C37U], the self-cleavage amounted to 0.07.

As for GGCAGAGCUCAACACAGUGAGGCAAAGUGGCUGUGGCUAGACUGCC [C18U U20A], the self-cleavage was found to be 0.61. GGCAGAGCUCAACACAGUGCGGCAAAGUGGCUGUGGCUAGACUGCC [C18U U20C]: the self-cleavage came to 0.98. For GGCAGAGCUCAACACAGUGGGGCAAAGUGGCUGUGGCUAGACUGCC [C18U U20G] the value was 0.41; for GGCAGAGCUCAACACAGUGUGGCAAAGUGGCUGUGACUAGACUGCC [C18U G36A], 0.15; for GGCAGAGCUCAACACAGUGUGGCAAAGUGGCUGUGUCUAGACUGCC [C18U G36U], 0.06. Consider GGCAGAGCUCAACACAGUGUGGCAAAGUGGCUGUGCCUAGACUGCC [C18U G36C], for which the self-cleavage came to 0.06. Then GGCAGAGCUCAACACAGCAUGGCGAAGUGGCUGUGGCUAGACUGCC [G19A A24G], with 1.45. Turning to GGCAGAGCUCAACACAGCAUGGCCAAGUGGCUGUGGCUAGACUGCC [G19A A24C], the self-cleavage is 0.61. For GGCAGAGCUCAACACAGCAUGGCUAAGUGGCUGUGGCUAGACUGCC [G19A A24U] the value was 2.05.

Turning to GGCAGAGCUCAACACAGUGUGGCAAAGUCGCUGUGGCUAGACUGCC [C18U G29C], the self-cleavage was found to be 0.86. In the case of GGCAGAGCUCAACACAGUGUGGCAAAGUUGCUGUGGCUAGACUGCC [C18U G29U], the self-cleavage was determined as 1.87.

Regarding GGCAGAGCUCAACACAGUGUGGCAAAGUAGCUGUGGCUAGACUGCC [C18U G29A], the self-cleavage worked out at 1.77. Then GGCAGAGCUCAACACAGUGUGGCAAAGUGGCUGUGGCUAGACGGCC [C18U U43G], with 0; and GGCAGAGCUCAACACAGUGUGGCAAAGUGGCUGUGGCUAGACAGCC [C18U U43A], with 0.06. Turning to GGCAGAGCUCAACACAGUGUGGCAAAGUGGCUGUGGCUAGACCGCC [C18U U43C], the self-cleavage was 0.09. For GGCAGAGCUCAACACAGUGUGGCAGAGUGGCUGUGGCUAGACUGCC [C18U A25G], the self-cleavage is 0.26.

With GGCAGAGCUCAACACAGUGUGGCAUAGUGGCUGUGGCUAGACUGCC [C18U A25U], the self-cleavage came to 0.7. For GGCAGAGCUCAACACAGUGUGGCACAGUGGCUGUGGCUAGACUGCC [C18U A25C] the value was 0.86; for GGCAGAGCUCAACACAGUGUGGCAAAGUGGCUGUGGCUAGACUGCA [C18U C46A], 0.46.

As for GGCAGAGCUCAACACAGUGUGGCAAAGUGGCUGUGGCUAGACUGCG [C18U C46G], the self-cleavage worked out at 1.24.

With GGCAGAGCUCAACACAGUGUGGCAAAGUGGCUGUGGCUAGACUGCU [C18U C46U], the self-cleavage stood at 1.43. Take GGCAGAGCUCAACACAGCAUGGCAACGUGGCUGUGGCUAGACUGCC [G19A A26C]: the self-cleavage is 0.52. For GGCAGAGCUCAACACAGCAUGGCAAGGUGGCUGUGGCUAGACUGCC [G19A A26G], the self-cleavage came to 0.98.

Take GGCAGAGCUCAACACAGUGUGGCAAAGUGGCUGUGGCUAGACUACC [C18U G44A]: the self-cleavage is 0.22. On to GGCAGAGCUCAACACAGUGUGGCAAAGUGGCUGUGGCUAGACUCCC [C18U G44C], for which the self-cleavage turned out to be 0.28. With GGCAGAGCUCAACACAGUGUGGCAAAGUGGCUGUGGCUAGACUUCC [C18U G44U], the self-cleavage is 0.07.

On to GGCAGAGCUCAACACAGUGUGGCAAAGUGACUGUGGCUAGACUGCC [C18U G30A], for which the self-cleavage turned out to be 1.78. For the variant GGCAGAGCUCAACACAGUGUGGCAAAGUGUCUGUGGCUAGACUGCC [C18U G30U], the self-cleavage worked out at 0.4.

On to GGCAGAGCUCAACACAGUGUGGCAAAGUGCCUGUGGCUAGACUGCC [C18U G30C], for which the self-cleavage stood at 1.82. Then GGCAGAGCUCAACACAGUGUGGCAAAGUGGCGGUGGCUAGACUGCC [C18U U32G], with 0.09; and GGCAGAGCUCAACACAGUGUGGCAAAGUGGCAGUGGCUAGACUGCC [C18U U32A], with 0.04; and GGCAGAGCUCAACACAGUGUGGCAAAGUGGCCGUGGCUAGACUGCC [C18U U32C], with 0.16. GGCAGAGCUCAACACAGGGUGGCAAAGUGGCUGUGGCUAGACCGCC [C18G U43C]: the self-cleavage was 0.06.

Take GGCAGAGCUCAACACAGGGUGGCAAAGUGGCUGUGGCUAGACGGCC [C18G U43G]: the self-cleavage amounted to 0.13.

For the variant GGCAGAGCUCAACACAGGGUGGCAAAGUGGCUGUGGCUAGACAGCC [C18G U43A], the self-cleavage stood at 0.07. GGCAGAGCUCAACACAGGGUGGCAAAGGGGCUGUGGCUAGACUGCC [C18G U28G]: the self-cleavage was 0.22. For GGCAGAGCUCAACACAGGGUGGCAAAGAGGCUGUGGCUAGACUGCC [C18G U28A] the value was 0.39.

Regarding GGCAGAGCUCAACACAGGGUGGCAAAGCGGCUGUGGCUAGACUGCC [C18G U28C], the self-cleavage was determined as 0.36. Then GGCAGAGCUCAACACAGUGUGGCAAAGUGGCUGUGGCUAGACUGCC [C18U], with 1.21; and GGCAGAGCUCAACACAGUGUGGCAAAGAGGCUGUGGCUAGACUGCC [C18U U28A], with 0.86. Then GGCAGAGCUCAACACAGUGUGGCAAAGGGGCUGUGGCUAGACUGCC [C18U U28G], with 0.43; and GGCAGAGCUCAACACAGUGUGGCAAAGCGGCUGUGGCUAGACUGCC [C18U U28C], with 1.2; and GGCAGAGCUCAACACAGGGUGGCAAAGUGGCGGUGGCUAGACUGCC [C18G U32G], with 0.06.

As to GGCAGAGCUCAACACAGGGUGGCAAAGUGGCCGUGGCUAGACUGCC [C18G U32C], the self-cleavage stood at 0.15.

In the case of GGCAGAGCUCAACACAGGGUGGCAAAGUGGCAGUGGCUAGACUGCC [C18G U32A], the self-cleavage was found to be 0.05.

As to GGCAGAGCUCAACACAGUGUGGCAAAGUGGAUGUGGCUAGACUGCC [C18U C31A], the self-cleavage came out at 0.08. On to GGCAGAGCUCAACACAGUGUGGCAAAGUGGUUGUGGCUAGACUGCC [C18U C31U], for which the self-cleavage came out at 0.04.

For GGCAGAGCUCAACACAGUGUGGCAAAGUGGGUGUGGCUAGACUGCC [C18U C31G], the self-cleavage is 0.05. For the variant GGCAGAGCUCAACACAGUGUGGCAAAGUGGCUGUAGCUAGACUGCC [C18U G35A], the self-cleavage is 0.1. For GGCAGAGCUCAACACAGUGUGGCAAAGUGGCUGUCGCUAGACUGCC [C18U G35C] the value was 0.03; for GGCAGAGCUCAACACAGUGUGGCAAAGUGGCUGUUGCUAGACUGCC [C18U G35U], 0.08; for GGCAGAGCUCAACACAGUGUGUCAAAGUGGCUGUGGCUAGACUGCC [C18U G22U], 1.21.
